Molecular target: Cas9 protein fused to 10 tandem copies of GCN4 peptide separated by linkers (SunTag) (Streptococcus pyogenes) (UniProt Q99ZW2)
Assay: cell-based or functional assay

UniProt Q99ZW2, sequence (Q99ZW2 whole entry, the tested form may be a part): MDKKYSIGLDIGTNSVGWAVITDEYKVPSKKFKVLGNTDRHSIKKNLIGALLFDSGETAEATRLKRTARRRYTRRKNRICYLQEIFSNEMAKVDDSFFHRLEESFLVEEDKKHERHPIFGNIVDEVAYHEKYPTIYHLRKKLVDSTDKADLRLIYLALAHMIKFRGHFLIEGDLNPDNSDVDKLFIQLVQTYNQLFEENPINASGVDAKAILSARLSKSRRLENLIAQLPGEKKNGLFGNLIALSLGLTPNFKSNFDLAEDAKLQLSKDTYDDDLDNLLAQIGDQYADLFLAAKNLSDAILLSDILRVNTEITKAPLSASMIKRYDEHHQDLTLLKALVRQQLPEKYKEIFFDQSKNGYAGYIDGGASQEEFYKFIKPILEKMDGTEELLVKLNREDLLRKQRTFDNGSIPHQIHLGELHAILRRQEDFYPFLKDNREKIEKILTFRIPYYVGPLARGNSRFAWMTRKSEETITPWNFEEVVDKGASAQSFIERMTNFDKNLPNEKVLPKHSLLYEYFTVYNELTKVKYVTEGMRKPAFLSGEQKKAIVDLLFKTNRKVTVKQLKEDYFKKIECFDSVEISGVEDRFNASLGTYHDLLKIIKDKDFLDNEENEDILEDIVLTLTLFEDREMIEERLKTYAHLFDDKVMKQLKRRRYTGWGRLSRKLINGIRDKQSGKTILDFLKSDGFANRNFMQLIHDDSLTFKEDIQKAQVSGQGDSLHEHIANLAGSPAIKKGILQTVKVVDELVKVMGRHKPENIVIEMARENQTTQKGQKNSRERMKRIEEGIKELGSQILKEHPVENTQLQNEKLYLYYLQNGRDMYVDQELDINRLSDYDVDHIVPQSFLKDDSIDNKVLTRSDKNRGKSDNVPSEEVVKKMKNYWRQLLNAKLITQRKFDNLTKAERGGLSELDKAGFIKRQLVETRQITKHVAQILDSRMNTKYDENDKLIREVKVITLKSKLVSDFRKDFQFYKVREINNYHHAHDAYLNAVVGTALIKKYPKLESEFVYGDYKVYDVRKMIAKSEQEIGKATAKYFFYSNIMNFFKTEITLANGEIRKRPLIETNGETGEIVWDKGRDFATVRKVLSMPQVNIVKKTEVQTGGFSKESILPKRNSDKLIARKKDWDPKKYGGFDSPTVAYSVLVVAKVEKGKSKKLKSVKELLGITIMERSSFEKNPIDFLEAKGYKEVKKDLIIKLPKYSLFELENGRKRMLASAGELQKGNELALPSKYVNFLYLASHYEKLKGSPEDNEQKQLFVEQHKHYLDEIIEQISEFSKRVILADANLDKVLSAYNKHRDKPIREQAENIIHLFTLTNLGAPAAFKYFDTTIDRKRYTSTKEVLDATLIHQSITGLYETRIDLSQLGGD

REDIT recombinator protein (SSAP RecT) fused to scFV antibody peptide (SunTag recruitment)
HRD efficiencies (mKate knock-in assay): 2 fold
